Assay [1] has as its target T1, Serum-derived human C1s (human, UniProt P09871 16-688).
T1 construct: The analyte was C1s purified from serum; also called hC1s
T1 sequence: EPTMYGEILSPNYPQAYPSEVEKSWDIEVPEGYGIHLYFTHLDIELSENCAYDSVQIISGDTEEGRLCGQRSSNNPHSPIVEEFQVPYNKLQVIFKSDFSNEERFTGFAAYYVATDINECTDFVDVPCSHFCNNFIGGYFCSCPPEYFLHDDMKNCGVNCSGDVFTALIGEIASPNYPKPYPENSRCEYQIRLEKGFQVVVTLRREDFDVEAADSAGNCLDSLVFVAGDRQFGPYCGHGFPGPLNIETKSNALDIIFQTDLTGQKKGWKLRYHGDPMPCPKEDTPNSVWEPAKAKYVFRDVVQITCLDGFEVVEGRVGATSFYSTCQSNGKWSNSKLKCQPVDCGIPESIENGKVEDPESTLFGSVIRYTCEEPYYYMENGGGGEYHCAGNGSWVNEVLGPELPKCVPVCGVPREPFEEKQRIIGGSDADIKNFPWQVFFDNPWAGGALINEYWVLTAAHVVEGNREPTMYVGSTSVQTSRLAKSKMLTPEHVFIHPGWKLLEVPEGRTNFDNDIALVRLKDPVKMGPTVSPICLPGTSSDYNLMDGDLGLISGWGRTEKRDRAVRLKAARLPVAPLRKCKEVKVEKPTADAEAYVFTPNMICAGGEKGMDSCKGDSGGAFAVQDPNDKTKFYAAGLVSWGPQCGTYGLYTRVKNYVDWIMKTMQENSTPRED
The assay can be described thus: SPR Biacore T200, 37 C, ratio of dissociation rates pH 5.8 / pH 7.4, 1.2 mM CaCl2. Here is the method:
(§1) The binding affinity of all histidine-substituted variants at pH 7.4 and pH 5.8 were determined at 37 degrees C. using Biacore T200 instrument (GE Healthcare). Recombinant Protein A/G (Pierce) was immobilized onto all flow cells of a CM4 sensor chip using amine coupling kit (GE Healthcare). Antibodies and analytes were prepared in 7(+) buffer (20 mM ACES, 150 mM NaCl, 1.2 mM CaCl2, 0.05% Tween 20, 0.005% NaN3, pH 7.4) or 5(+) buffer (20 mM ACES, 150 mM NaCl, 1.2 mM CaCl2), 0.05% Tween 20, 0.005% NaN3, pH 5.8). Each antibody was captured onto the sensor surface by protein A/G. Antibody capture levels were aimed at 200 resonance unit (RU). […] Sensor surface was regenerated each cycle with 10 mM Glycine-HCl pH 1.5. […] An additional dissociation phase at pH 5.8 was integrated immediately after the dissociation phase at pH 7.4. This dissociation rate in 5(+) buffer was determined by processing and fitting data using Scrubber 2.0 (BioLogic Software) curve fitting software.

Assay [2] has as its target T1, Serum-derived human C1s. The assay can be described thus: SPR Biacore T200, 37 C, antibody captured on protein A/G, pH 5.8, 1.2 mM CaCl2; marked *: not accurately determined, low binding response. Here is the method: as §1
(In general: Surface plasmon resonance follows binding to a sensor surface in real time, without labels.)

Assay [3] concerns the target T1, Serum-derived human C1s. The assay can be described thus: SPR Biacore T200, 37 C, antibody captured on protein A/G, pH 7.4, 1.2 mM CaCl2. Here is the method: as §1
For assay [4], the target named is T2, human C1s (human, UniProt P09871 16-688).
T2 construct: Analyte in the Biacore assays; also called hC1s; serum-derived human C1s (CompTech)
T2 sequence: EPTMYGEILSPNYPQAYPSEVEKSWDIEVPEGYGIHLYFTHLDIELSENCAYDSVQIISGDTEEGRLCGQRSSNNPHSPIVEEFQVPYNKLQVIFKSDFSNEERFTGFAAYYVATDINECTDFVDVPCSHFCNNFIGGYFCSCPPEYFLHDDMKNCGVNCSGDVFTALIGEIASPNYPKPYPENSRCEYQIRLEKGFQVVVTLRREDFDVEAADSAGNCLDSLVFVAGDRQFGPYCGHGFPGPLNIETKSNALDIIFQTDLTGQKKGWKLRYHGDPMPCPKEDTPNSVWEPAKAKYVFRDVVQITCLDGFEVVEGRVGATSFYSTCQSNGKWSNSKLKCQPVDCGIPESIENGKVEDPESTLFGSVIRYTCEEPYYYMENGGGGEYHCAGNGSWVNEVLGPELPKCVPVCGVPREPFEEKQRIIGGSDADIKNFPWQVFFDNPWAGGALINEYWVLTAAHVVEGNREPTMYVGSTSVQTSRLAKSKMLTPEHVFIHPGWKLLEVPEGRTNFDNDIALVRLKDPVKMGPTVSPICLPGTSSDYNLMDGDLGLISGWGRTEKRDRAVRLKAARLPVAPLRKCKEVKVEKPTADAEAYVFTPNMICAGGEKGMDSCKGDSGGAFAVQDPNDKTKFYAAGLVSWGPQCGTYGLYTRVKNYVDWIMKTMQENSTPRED
The assay can be described thus: SPR (Biacore T200, 37C), Ab captured on protein A/G; pH 5.8, 1.2 mM Ca. Here is the method:
(§2) All variants were transiently expressed and purified by the method described above. The binding affinity of each histidine-substituted variant at pH 7.4 and pH 5.8 was determined at 37 degrees C. using Biacore T200 instrument (GE Healthcare). Recombinant Protein A/G (Pierce) was immobilized onto all flow cells of a CM4 sensor chip using an amine coupling kit (GE Healthcare). Antibodies and analytes were prepared in 7(+) buffer (20 mM ACES, 150 mM NaCl, 1.2 mM CaCl2, 0.05% Tween 20, 0.005% NaN3, pH 7.4), 5(+) buffer (20 mM ACES, 150 mM NaCl, 1.2 mM CaCl2, 0.05% Tween 20, 0.005% NaN3, pH 5.8), or 5(−) buffer (20 mM ACES, 150 mM NaCl, 3 micro M CaCl2, 0.05% Tween 20, 0.005% NaN3, pH 5.8). Each antibody was captured onto the sensor surface by protein A/G. Antibody capture levels were aimed at 200 resonance unit (RU). Serum-derived human C1s (CompTech) or recombinant C1s prepared in EXAMPLE 1 was injected at 50 nM, followed by dissociation. The sensor surface was regenerated in each cycle with 10 mM Glycine-HCl, pH 1.5. […] The ratio of KD 5.8+ to KD 7.4+(“KD 5+/7+”) and that of KD 5.8− to KD 7.4+(“KD 5−/7+”) were calculated. When the KD 5+/7+ or KD 5−/7+ of a variant is larger than that of the parent antibody IPN009VH2-SG4GK/IPN009VK3-SK1, that variant is considered to be “pH”- or “pH and Ca”-dependent, respectively. When binding response in 5(+) buffer and/or in 5(−) buffer of a variant is much lower than that of IPN09VH2/IPN009VK3, that variant is also considered as “pH”- and/or “pH and Ca”-dependent. Therefore, such mutations are effective to generate “pH”- and/or “pH and Ca”-dependent antibody. To further enhance “pH” and/or “pH and Ca” dependency, a combination of histidine mutations was conducted. Antibodies with combinations of histidine mutations were evaluated using Biacore by the method described above.

For assay [5], the target named is T2, human C1s. Described as above. The gist of the method:
(§3)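 Antibody captured on protein A/G (~200 RU) on Biacore T200 at 37C; serum-derived or recombinant human C1s injected at 50 nM, then dissociation. KD measured at pH 7.4 with 1.2 mM Ca and at pH 5.8 with 1.2 mM or 3 uM Ca; KD ratios pH 5.8/pH 7.4 calculated.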
This is another data set of the same source.

The target in assay [6] is T2, human C1s. Put plainly: SPR; KD at pH 5.8 (3 uM Ca) over KD at pH 7.4 (1.2 mM Ca). Here is the method:
as §2

In assay [7] the target is T2, human C1s. The assay can be described thus: SPR (Biacore T200, 37C), Ab captured on protein A/G; pH 5.8, 3 uM Ca. An outline of the steps:
as §3

The target in assay [8] is T2, human C1s. The assay is described as above. As to the method:
as §2
The source holds these as a separate data set.

Assay [9] deals with T2, human C1s. The assay can be described thus: SPR (Biacore T200, 37C), Ab captured on protein A/G; pH 7.4, 1.2 mM Ca. As to the method: as §2
Assay [10] deals with T2, human C1s. The assay can be described thus: SPR; KD at pH 5.8 (3 uM Ca) over KD at pH 7.4 (1.2 mM Ca). An outline of the steps:
as §3
This is another data set of the same source.

For assay [11], the target named is T2, human C1s. The assay can be described thus: SPR; KD at pH 5.8 (1.2 mM Ca) over KD at pH 7.4 (1.2 mM Ca). The gist of the method: as §3
The target of assay [12] is T2, human C1s. The assay is described as above. Here is the method:
as §2
The source holds these as a separate data set.

Where two headings read alike, the source gives them in different places.

As a reminder, the Kd is the free concentration of one partner at which half of the binding sites on the other are occupied at equilibrium, for simple one-to-one binding. Low readings indicate higher affinity, high ones lower affinity. By koff is commonly meant a measure of how fast the partners let go of each other. A word on the kon: it is the second-order rate constant of association.

B1: IPN92H0286/IPN93L0205-SG136 (antibody, human IgG1, kappa, name in Kabat numbering)
heavy: EVMLVESGGGLVKPGGSLRLSCAASGFTFSNKAMSWVRQAPGKGLEWVATISSGGSHTYYLDSVKHRFTISRDNSKDTLYLQMNSLRAEDTALYYCARLFTGHAMDYWGQGTLVTVSSASTKGPSVFPLAPSSKSTSGGTAALGCLVKDYFPEPVTVSWNSGALTSGVHTFPAVLQSSGLYSLSSVVTVPSSSLGTQTYICNVNHKPSNTKVDKKVEPKSCDKTHTCPPCPAPELRRGPSVFLFPPKPKDTLMISRTPEVTCVVVDVSHEDPEVKFNWYVDGVEVHNAKTKPREEQYNSTYRVVSVLTVLHQDWLNGKEYKCKVSNKGLPSSIEKTISKAKGQPREPQVYTLPPSREEMTKNQVSLTCLVKGFYPSDIAVEWESNGQPENNYKTTPPVLDSDGSFFLYSKLTVDKSRWQQGNVFSCSVMHEALHNHYTQKSLSLSP
light: QIVLTQSPATLSLSPGERATLSCTASSSVSSSRLHWYQQKPGKAPKLWIYSTSNLASGVPSRFSGSGSGTDYTLTISSLQPEDFATYYCHQYHRHPPITFGQGTKLEIKRTVAAPSVFIFPPSDEQLKSGTASVVCLLNNFYPREAKVQWKVDNALQSGNSQESVTEQDSKDCTYSLSSTLTLSKADYEKHKVYACEVTHQGLSSPVTKSFNRGEC
notes: Substitutions are numbered by Kabat
Take B1: the “koff (5.8+ of 775+)/koff (7.4+)” value in assay [1] worked out at 16.3. Besides, in assay [2], the Kd amounted to 8.53 µM, the koff stood at 0.0237 s⁻¹ and the kon is 2780 M⁻¹ s⁻¹. In assay [3], this molecule yielded a Kd of 0.00143 µM and a kon of 574000 M⁻¹ s⁻¹.

B2: C1_IPN009VH2-SG4GK/IPN009VK3-SK1 (antibody, human IgG4 S228P, kappa)
heavy: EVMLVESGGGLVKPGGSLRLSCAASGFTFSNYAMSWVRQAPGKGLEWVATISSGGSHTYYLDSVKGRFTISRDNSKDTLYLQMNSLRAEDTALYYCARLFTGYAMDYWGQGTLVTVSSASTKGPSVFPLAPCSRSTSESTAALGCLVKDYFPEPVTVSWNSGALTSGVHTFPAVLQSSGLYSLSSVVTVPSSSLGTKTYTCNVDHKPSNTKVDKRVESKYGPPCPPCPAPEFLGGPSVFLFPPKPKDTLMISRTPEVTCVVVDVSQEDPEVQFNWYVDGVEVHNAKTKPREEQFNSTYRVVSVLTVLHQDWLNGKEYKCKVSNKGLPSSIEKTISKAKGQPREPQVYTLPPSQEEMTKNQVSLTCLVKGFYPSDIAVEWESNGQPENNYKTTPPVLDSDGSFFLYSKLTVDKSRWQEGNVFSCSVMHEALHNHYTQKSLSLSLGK
light: QIVLTQSPATLSLSPGERATLSCTASSSVSSSYLHWYQQKPGKAPKLWIYSTSNLASGVPSRFSGSGSGTDYTLTISSLQPEDFATYYCHQYYRLPPITFGQGTKLEIKRTVAAPSVFIFPPSDEQLKSGTASVVCLLNNFYPREAKVQWKVDNALQSGNSQESVTEQDSKDSTYSLSSTLTLSKADYEKHKVYACEVTHQGLSSPVTKSFNRGEC
notes: Parent antibody; also called IPN009VH2/IPN009VK3; IPN09VH2/IPN09VK3
On to B2, for which the dissociation rate constant (koff) worked out at 0.000108 s⁻¹ in assay [4]; 0.000108 s⁻¹ in assay [5]; 0.00204 s⁻¹ in [7]; 0.00204 s⁻¹ in assay [8]; 0.000298 s⁻¹ in [9]. The kon in [4] stood at 662000 M⁻¹ s⁻¹; in assay [5], 662000 M⁻¹ s⁻¹; in assay [7], 606000 M⁻¹ s⁻¹; in assay [8], 605000 M⁻¹ s⁻¹; in assay [9], 362000 M⁻¹ s⁻¹. In addition, the “KD 5(-)/7(+)” value in [6] and in assay [10] was 4.09 throughout. Moreover, the “KD 5(+)/7(+)” value in assay [11] and in assay [12] was 0.2 each time.

B3: C1_IPN92H0307-SG4GK/IPN93L0058-SK1 (antibody, human IgG4 S228P, kappa)
heavy: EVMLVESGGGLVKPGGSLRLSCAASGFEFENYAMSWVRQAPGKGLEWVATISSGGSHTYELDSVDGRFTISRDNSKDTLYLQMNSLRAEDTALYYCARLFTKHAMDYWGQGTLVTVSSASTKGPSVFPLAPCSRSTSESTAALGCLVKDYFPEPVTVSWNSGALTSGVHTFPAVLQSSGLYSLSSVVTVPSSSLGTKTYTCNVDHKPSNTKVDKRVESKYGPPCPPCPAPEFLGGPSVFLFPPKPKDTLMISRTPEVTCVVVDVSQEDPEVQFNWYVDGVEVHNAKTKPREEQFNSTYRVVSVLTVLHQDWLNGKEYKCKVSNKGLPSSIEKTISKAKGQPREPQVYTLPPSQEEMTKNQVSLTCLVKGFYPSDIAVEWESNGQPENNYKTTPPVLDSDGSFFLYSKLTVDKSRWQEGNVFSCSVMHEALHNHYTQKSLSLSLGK
light: QIVLTQSPATLSLSPGERATLSCTASSEVSSSYLHWYQQKPGKAPKLWIYSTSNLASGVPSRFSGSGSGTDYTLTISSLQPEDFATYYCHQYYRLHPITFGQGTKLEIKRTVAAPSVFIFPPSDEQLKSGTASVVCLLNNFYPREAKVQWKVDNALQSGNSQESVTEQDSKDSTYSLSSTLTLSKADYEKHKVYACEVTHQGLSSPVTKSFNRGEC
notes: also called IPN92H0307/IPN93L0058
As to B3, the koff in assay [4] is 0.0142 s⁻¹; in assay [8], 0.00196 s⁻¹; in [9] it was 0.000863 s⁻¹. In addition, the figures for the kon in assay [4], in [8] and in assay [9] were 731000 M⁻¹ s⁻¹, 396000 M⁻¹ s⁻¹ and 446000 M⁻¹ s⁻¹, respectively. The “KD 5(-)/7(+)” value in assay [6] stood at 2.56. Moreover, the “KD 5(+)/7(+)” value in assay [12] is 10.1.

B4: C1_IPN92H0288-SG4GK/IPN93L0058-SK1 (antibody, human IgG4 S228P, kappa)
heavy: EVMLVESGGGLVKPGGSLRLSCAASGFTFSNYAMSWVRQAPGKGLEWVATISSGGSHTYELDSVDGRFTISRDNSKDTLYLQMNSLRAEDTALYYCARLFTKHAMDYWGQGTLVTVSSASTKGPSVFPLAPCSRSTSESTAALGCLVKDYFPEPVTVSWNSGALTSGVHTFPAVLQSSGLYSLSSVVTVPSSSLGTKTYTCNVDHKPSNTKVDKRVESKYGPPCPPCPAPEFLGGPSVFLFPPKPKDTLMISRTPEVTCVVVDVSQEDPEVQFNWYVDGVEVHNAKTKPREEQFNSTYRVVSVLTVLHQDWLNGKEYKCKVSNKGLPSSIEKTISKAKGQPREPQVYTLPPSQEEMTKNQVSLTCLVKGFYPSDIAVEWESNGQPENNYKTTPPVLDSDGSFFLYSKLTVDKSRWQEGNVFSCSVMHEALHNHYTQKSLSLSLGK
light: QIVLTQSPATLSLSPGERATLSCTASSEVSSSYLHWYQQKPGKAPKLWIYSTSNLASGVPSRFSGSGSGTDYTLTISSLQPEDFATYYCHQYYRLHPITFGQGTKLEIKRTVAAPSVFIFPPSDEQLKSGTASVVCLLNNFYPREAKVQWKVDNALQSGNSQESVTEQDSKDSTYSLSSTLTLSKADYEKHKVYACEVTHQGLSSPVTKSFNRGEC
notes: also called IPN92H0288/IPN93L0058
Turning to B4, the koff in assay [4] was 0.0143 s⁻¹; in assay [8], 0.00401 s⁻¹; in assay [9], 0.000548 s⁻¹. The kon was found to be 732000 M⁻¹ s⁻¹ in assay [4], 504000 M⁻¹ s⁻¹ in [8] and 654000 M⁻¹ s⁻¹ in assay [9]. In assay [6], the “KD 5(-)/7(+)” value was 9.5. For the same molecule, the “KD 5(+)/7(+)” value in assay [12] was determined as 23.3.
